In PMC9352680, “A comprehensive thermodynamic model for RNA binding by the Saccharomyces cerevisiae Pumilio protein PUF4”:
Residue numbers refer to the chain shown, from its start. In names and notes the source's numbering stands.

T1: PUF4 RNA-binding domain (Saccharomyces cerevisiae, UniProt P25339 537-888)
T1 sequence: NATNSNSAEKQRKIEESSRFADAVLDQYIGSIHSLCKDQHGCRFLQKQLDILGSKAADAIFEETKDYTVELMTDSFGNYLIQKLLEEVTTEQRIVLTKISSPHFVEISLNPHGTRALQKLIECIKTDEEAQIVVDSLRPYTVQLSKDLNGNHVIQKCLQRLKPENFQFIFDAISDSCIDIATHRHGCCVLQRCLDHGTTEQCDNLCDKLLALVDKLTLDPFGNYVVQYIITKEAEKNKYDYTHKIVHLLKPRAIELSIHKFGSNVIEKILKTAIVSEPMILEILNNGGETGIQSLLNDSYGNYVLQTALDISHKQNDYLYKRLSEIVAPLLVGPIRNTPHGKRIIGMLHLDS

B1: Ic_S2_P3E.1_K3.1_C3.1_H3.1_A3.1_[T5C]_[A6T]_F3.1_[T7C]_[A8C]_T3.1 (ssRNA)
RNA: UUUGAUUAAUAUGAUAUCGUUCUUUCUUGUACUCCUUCUUUCUCGAUAUCAUAUUAAUCUUU
B2: Ic_S2_P3E.1_K3.1_C3.1_H3.1_A3.1_[A6T]_F3.1_[T7C]_[A8G]_T3.1 (ssRNA)
RNA: B1 RNA with C32U, C35G
B3: Ic_S2_P3E.1_K3.1_C3.1_H3.1_A3.1_[T5A]_[A6T]_F3.1_[T7A]_[A8G]_T3.1 (ssRNA)
RNA: B1 RNA with C32A, C34A, C35G
B4: Ic_S2_P3E.1_K3.1_C3.1_H3.1_A3.1_[T5C]_F3.1_[T7G]_[A8C]_T3.1 (ssRNA)
RNA: B1 RNA with U33A, C34G
B5: Ic_S2_P3E.1_K3.1_C3.1_H3.1_A3.1_[T5C]_[A6T]_F3.1_[T7A]_[A8T]_T3.1 (ssRNA)
RNA: B1 RNA with C34A, C35U
B6: Ic_S2_P3E.1_K3.1_C3.1_H3.1_A3.1_[T5A]_F3.1_[T7A]_[A8C]_T3.1 (ssRNA)
RNA: B1 RNA with C32A, U33A, C34A
B7: Ic_S2_P3E.1_K3.1_C3.1_H3.1_A3.1_[T5C]_[A6T]_F3.1_[A8C]_T3.1 (ssRNA)
RNA: B1 RNA with C34U
B8: Ic_S2_P3E.1_K3.1_C3.1_H3.1_A3.1_[T5C]_[A6T]_F3.1_[T7A]_[A8G]_T3.1 (ssRNA)
RNA: B1 RNA with C34A, C35G
B9: Ic_S2_P3E.1_K3.1_C3.1_H3.1_A3.1_[T5A]_[A6C]_F3.1_[T7C]_[A8G]_T3.1 (ssRNA)
RNA: B1 RNA with C32A, U33C, C35G
B10: Ic_S2_P3E.1_K3.1_C3.1_H3.1_A3.1_[T5C]_[A6T]_F3.1_[A8G]_T3.1 (ssRNA)
RNA: B1 RNA with C34U, C35G
B11: Ic_S2_P3E.1_K3.1_C3.1_H3.1_A3.1_[T5C]_F3.1_[T7C]_[A8T]_T3.1 (ssRNA)
RNA: B1 RNA with U33A, C35U
B12: Ic_S2_P3E.1_K3.1_C3.1_H3.1_A3.1_[T5C]_F3.1_[T7A]_[A8G]_T3.1 (ssRNA)
RNA: B1 RNA with U33A, C34A, C35G
B13: Ic_S2_P3E.1_K3.1_C3.1_H3.1_A3.1_[A6C]_F3.1_[T7C]_[A8C]_T3.1 (ssRNA)
RNA: B1 RNA with C32U, U33C
B14: Ic_S2_P3E.1_K3.1_C3.1_H3.1_A3.1_[A6C]_F3.1_[T7A]_[A8T]_T3.1 (ssRNA)
RNA: B1 RNA with C32U, U33C, C34A, C35U
B15: Ic_S2_P3E.1_K3.1_C3.1_H3.1_A3.1_[T5C]_[A6T]_F3.1_[T7A]_T3.1 (ssRNA)
RNA: B1 RNA with C34A, C35A
B16: Ic_S2_P3E.1_K3.1_C3.1_H3.1_A3.1_[T5A]_[A6C]_F3.1_[A8G]_T3.1 (ssRNA)
RNA: B1 RNA with C32A, U33C, C34U, C35G
B17: Ic_S2_P3E.1_K3.1_C3.1_H3.1_A3.1_[T5C]_[A6T]_F3.1_[T7A]_[A8C]_T3.1 (ssRNA)
RNA: B1 RNA with C34A
B18: Ic_S2_P3E.1_K3.1_C3.1_H3.1_A3.1_[T5A]_[A6C]_F3.1_[T7C]_[A8T]_T3.1 (ssRNA)
RNA: B1 RNA with C32A, U33C, C35U
B19: Ic_S2_P3E.1_K3.1_C3.1_H3.1_A3.1_[A6C]_F3.1_[T7C]_[A8T]_T3.1 (ssRNA)
RNA: B1 RNA with C32U, U33C, C35U
B20: Ic_S2_P3E.1_K3.1_C3.1_H3.1_A3.1_[T5A]_[A6T]_F3.1_[A8C]_T3.1 (ssRNA)
RNA: B1 RNA with C32A, C34U
B21: Ic_S2_P3E.1_K3.1_C3.1_H3.1_A3.1_[A6G]_F3.1_[T7G]_[A8C]_T3.1 (ssRNA)
RNA: B1 RNA with C32U, U33G, C34G
B22: Ic_S2_P3E.1_K3.1_C3.1_H3.1_A3.1_[A6C]_F3.1_[T7G]_[A8T]_T3.1 (ssRNA)
RNA: B1 RNA with C32U, U33C, C34G, C35U
B23: Ic_S2_P3E.1_K3.1_C3.1_H3.1_A3.1_[T5C]_F3.1_[T7A]_[A8C]_T3.1 (ssRNA)
RNA: B1 RNA with U33A, C34A
B24: Ic_S2_P3E.1_K3.1_C3.1_H3.1_A3.1_[T5A]_[A6C]_F3.1_[T7A]_[A8G]_T3.1 (ssRNA)
RNA: B1 RNA with C32A, U33C, C34A, C35G
B25: Ic_S2_P3E.1_K3.1_C3.1_H3.1_A3.1_[T5A]_[A6T]_F3.1_[A8T]_T3.1 (ssRNA)
RNA: B1 RNA with C32A, C34U, C35U
B26: Ic_S2_P3E.1_K3.1_C3.1_H3.1_A3.1_[T5A]_[A6T]_F3.1_[T7A]_[A8C]_T3.1 (ssRNA)
RNA: B1 RNA with C32A, C34A
B27: Ic_S2_P3E.1_K3.1_C3.1_H3.1_A3.1_[T5C]_F3.1_[T7C]_[A8C]_T3.1 (ssRNA)
RNA: B1 RNA with U33A
B28: Ic_S2_P3E.1_K3.1_C3.1_H3.1_A3.1_[T5A]_[A6C]_F3.1_[T7A]_[A8T]_T3.1 (ssRNA)
RNA: B1 RNA with C32A, U33C, C34A, C35U
B29: Ic_S2_P3E.1_K3.1_C3.1_H3.1_A3.1_[T5A]_[A6T]_F3.1_[T7A]_[A8T]_T3.1 (ssRNA)
RNA: B1 RNA with C32A, C34A, C35U
B30: Ic_S2_P3E.1_K3.1_C3.1_H3.1_A3.1_[T5C]_F3.1_[T7C]_[A8G]_T3.1 (ssRNA)
RNA: B1 RNA with U33A, C35G
B31: Ic_S2_P3E.1_K3.1_C3.1_H3.1_A3.1_[T5C]_F3.1_[T7G]_[A8T]_T3.1 (ssRNA)
RNA: B1 RNA with U33A, C34G, C35U
B32: Ic_S2_P3E.1_K3.1_C3.1_H3.1_A3.1_[T5A]_[A6C]_F3.1_[T7G]_[A8G]_T3.1 (ssRNA)
RNA: B1 RNA with C32A, U33C, C34G, C35G
B33: Ic_S2_P3E.1_K3.1_C3.1_H3.1_A3.1_[T5A]_[A6T]_F3.1_[T7G]_[A8T]_T3.1 (ssRNA)
RNA: B1 RNA with C32A, C34G, C35U
B34: Ic_S2_P3E.1_K3.1_C3.1_H3.1_A3.1_[A6T]_F3.1_[T7G]_[A8C]_T3.1 (ssRNA)
RNA: B1 RNA with C32U, C34G
B35: Ic_S2_P3E.1_K3.1_C3.1_H3.1_A3.1_[T5C]_[A6T]_F3.1_[A8T]_T3.1 (ssRNA)
RNA: B1 RNA with C34U, C35U
B36: Ic_S2_P3E.1_K3.1_C3.1_H3.1_A3.1_[T5C]_[A6T]_F3.1_[T7C]_[A8T]_T3.1 (ssRNA)
RNA: B1 RNA with C35U
B37: Ic_S2_P3E.1_K3.1_C3.1_H3.1_A3.1_[A6G]_F3.1_[T7C]_[A8C]_T3.1 (ssRNA)
RNA: B1 RNA with C32U, U33G
B38: Ic_S2_P3E.1_K3.1_C3.1_H3.1_A3.1_[T5A]_F3.1_[T7C]_[A8T]_T3.1 (ssRNA)
RNA: B1 RNA with C32A, U33A, C35U
B39: Ic_S2_P3E.1_K3.1_C3.1_H3.1_A3.1_[A6C]_F3.1_[T7A]_[A8G]_T3.1 (ssRNA)
RNA: B1 RNA with C32U, U33C, C34A, C35G
B40: Ic_S2_P3E.1_K3.1_C3.1_H3.1_A3.1_[T5A]_[A6T]_F3.1_[T7C]_[A8T]_T3.1 (ssRNA)
RNA: B1 RNA with C32A, C35U

Biological target: T1, PUF4 RNA-binding domain
Test: Mg; RNA-MaP; 20 mM Na-HEPES pH 7.4, 30 mM KOAc, 0.75 mM MgCl2, 0.1% Tween-20, 5% glycerol, 0.1 mg/mL BSA, 2 mM DTT; 25 C; 0.0125-409.6 nM protein
Conditions: tags: N-His6-TEV cleaved; C-SNAP kept, Cy3B-labelled; label: tethered on chip by stalled RNA polymerase

Binder	Kd
UCUCUUUUUAUGUAUCUCUU (ssRNA) [Ib_S1_P3E.1_K3.1_C3.1_H3.1_[G2T]_A3.1_[A6G]_F3.1_T3.1]	354 nM
UCUCUUUUUAUCUAUCUCUU (ssRNA) [Ib_S1_P3E.1_K3.1_C3.1_H3.1_[G2T]_A3.1_[A6C]_F3.1_T3.1]	> 2300 nM
B1	126 nM
B2	234 nM
B3	1530 nM
B4	35.4 nM
B5	3.82 nM
B6	621 nM
B7	36.4 nM
B8	692 nM
B9	626 nM
B10	107 nM
B11	2.64 nM
B12	1630 nM
B13	132 nM
B14	4.83 nM
B15	33.9 nM
B16	101 nM
B17	47 nM
B18	23.5 nM
B19	13.7 nM
B20	120 nM
B21	950 nM

Binder	Kd
B22	114 nM
B23	23.8 nM
B24	947 nM
B25	19.2 nM
B26	158 nM
B27	17.3 nM
B28	8.69 nM
B29	11.6 nM
B30	31.5 nM
B31	13.1 nM
B32	984 nM
B33	174 nM
B34	442 nM
B35	9.88 nM
B36	10.7 nM
B37	585 nM
B38	19.9 nM
B39	208 nM
B40	22.5 nM
UCUCUUUAUAUGUAUCUCUU (ssRNA) [Ib_S1_P3E.1_K3.1_C3.1_H3.1_[G2A]_A3.1_[A6G]_F3.1_T3.1]	384 nM
UCUCUUUGUAUAUUCUCUCUU (ssRNA) [Ic_S1_P4E.1_K4.1_C4.1_H4.1_A4.1_F4.1_[A9C]_T4.1]	6.17 nM
UCUCUUUUUAUUUAUCUCUU (ssRNA) [Ib_S1_P3E.1_K3.1_C3.1_H3.1_[G2T]_A3.1_[A6T]_F3.1_T3.1]	> 2300 nM
